Test results published in the Human Domainome abundance scans (Beltran et al. 2025).
± gives the uncertainty stated by the source.

B1: Nanos homolog 2, residues 63 to 115; numbered along this chain, P60321 (parent)
chain: CNFCKHNGESRHVYSSHQLKTPDGVVVCPILRHYVCPVCGATGDQAHTLKYCP

Variants of: B1
Test: abundance fitness (aPCA) (normalised: wild type 0, dead -1); higher = more abundant; growth selection in yeast, the domain comes from the species named
Settings: Homo sapiens

| Variant | abundance fitness |
| --- | --- |
| A41L | -0.032 ± 0.089 |
| A41P | -0.593 ± 0.11 |
| A41T | -0.089 ± 0.099 |
| A41D | -0.287 ± 0.15 |
| A41S | -0.014 ± 0.069 |
| A41C | 0.014 ± 0.1 |
| A41Q | 0.023 ± 0.14 |
| A41E | -0.032 ± 0.062 |
| A41R | -0.251 ± 0.091 |
| A41H | -0.068 ± 0.15 |
| A41W | -0.383 ± 0.14 |
| A41K | -0.173 ± 0.11 |
| A41F | -0.379 ± 0.081 |
| A41G | -0.08 ± 0.074 |
| A41I | -0.574 ± 0.25 |
| A41V | -0.102 ± 0.068 |
| A41M | -0.05 ± 0.082 |
| A41Y | -0.184 ± 0.089 |
| P37K | 0.139 ± 0.081 |
| P37I | -0.196 ± 0.13 |
| P37T | -0.09 ± 0.11 |

| Variant | abundance fitness |
| --- | --- |
| P37V | -0.072 ± 0.066 |
| P37W | -0.642 ± 0.15 |
| P37C | -0.34 ± 0.12 |
| P37R | 0.088 ± 0.085 |
| P37Q | 0.324 ± 0.2 |
| P37G | -0.046 ± 0.059 |
| P37D | 0.07 ± 0.15 |
| P37N | 0.078 ± 0.087 |
| P37E | 0.149 ± 0.11 |
| P37F | -0.306 ± 0.12 |
| P37L | -0.214 ± 0.098 |
| P37A | -0.231 ± 0.12 |
| P37M | -0.101 ± 0.12 |
| P37H | -0.034 ± 0.11 |
| P37Y | -0.305 ± 0.41 |
| P37S | 0.156 ± 0.1 |
| H33N | 0.218 ± 0.093 |
| H33V | 0.033 ± 0.069 |
| H33I | -0.435 ± 0.19 |
| H33C | -0.013 ± 0.11 |
| H33D | 0.127 ± 0.1 |

| Variant | abundance fitness |
| --- | --- |
| H33Y | -0.335 ± 0.11 |
| H33F | -0.534 ± 0.16 |
| H33W | -0.086 ± 0.09 |
| H33P | -0.319 ± 0.084 |
| H33E | -0.082 ± 0.12 |
| H33M | -0.028 ± 0.09 |
| H33R | 0.036 ± 0.05 |
| H33A | 0.046 ± 0.075 |
| H33K | -0.013 ± 0.11 |
| H33T | 0.068 ± 0.1 |
| T42R | -0.151 ± 0.07 |
| T42I | -0.342 ± 0.074 |
| T42M | -0.153 ± 0.13 |
| T42Q | -0.023 ± 0.11 |
| T42A | -0.162 ± 0.078 |
| T42H | -0.481 ± 0.23 |
| T42S | -0.116 ± 0.067 |
| T42P | -0.895 ± 0.24 |
| T42F | -0.395 ± 0.39 |
| T42W | -0.37 ± 0.095 |
| T42C | -0.223 ± 0.096 |

| Variant | abundance fitness |
| --- | --- |
| T42L | -0.294 ± 0.068 |
| T42D | -0.24 ± 0.12 |
| T42E | -0.128 ± 0.12 |
| T42N | -0.23 ± 0.14 |
| V26M | -0.292 ± 0.2 |
| V26S | -0.322 ± 0.092 |
| V26D | -0.509 ± 0.16 |
| V26F | -0.284 ± 0.14 |
| V26L | -0.036 ± 0.083 |
| V26Y | -0.427 ± 0.22 |
| V26G | -0.441 ± 0.057 |
| V26Q | -0.305 ± 0.081 |
| V26E | -0.574 ± 0.13 |
| V26A | -0.369 ± 0.11 |
| V26T | -0.111 ± 0.077 |
| V26C | -0.032 ± 0.12 |
| V26W | -0.46 ± 0.071 |
| V26K | -0.031 ± 0.15 |
| V26I | 0.033 ± 0.084 |
| V26N | -0.456 ± 0.17 |
